According to patent publication US20190338009A1 (ZEALAND PHARMA A S, published 2019):
Square brackets hold non-standard residues; d marks the D form. Aib = CC(C)(N)C(=O)O

What was measured:
[1] = molecular target: human glucagon-like peptide 1 receptor (GLP-1R) (human, UniProt P43220 24-463); assay: cell-based or functional assay
[2] = molecular target: T1, human GLP-2 receptor (hGLP2-R) (human, UniProt O95838 1-553); assay: cell-based or functional assay
T1 sequence (looked up): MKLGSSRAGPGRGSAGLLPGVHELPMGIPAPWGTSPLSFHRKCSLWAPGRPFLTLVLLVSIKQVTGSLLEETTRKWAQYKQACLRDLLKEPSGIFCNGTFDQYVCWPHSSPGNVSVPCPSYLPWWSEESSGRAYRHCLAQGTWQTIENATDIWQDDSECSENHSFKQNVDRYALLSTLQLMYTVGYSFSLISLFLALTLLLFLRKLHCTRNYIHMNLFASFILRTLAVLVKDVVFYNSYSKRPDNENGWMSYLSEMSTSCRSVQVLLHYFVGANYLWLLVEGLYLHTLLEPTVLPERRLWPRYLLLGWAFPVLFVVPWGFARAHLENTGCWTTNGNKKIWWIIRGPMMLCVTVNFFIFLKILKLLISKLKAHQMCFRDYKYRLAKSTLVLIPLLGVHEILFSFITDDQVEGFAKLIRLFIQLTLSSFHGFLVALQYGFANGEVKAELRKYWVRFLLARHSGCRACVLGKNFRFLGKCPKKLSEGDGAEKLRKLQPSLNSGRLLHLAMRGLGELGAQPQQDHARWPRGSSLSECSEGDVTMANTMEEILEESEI

B1: Compound 20 (peptide)
peptide: H-H[Aib]EGTFTSELATILDEQAARDFIAWLIAYKITD-OH
SMILES: CC[C@H](C)[C@H](NC(=O)[C@H](CC(C)C)NC(=O)[C@H](Cc1c[nH]c2ccccc12)NC(=O)[C@H](C)NC(=O)[C@@H](NC(=O)[C@H](Cc1ccccc1)NC(=O)[C@H](CC(=O)O)NC(=O)[C@H](CCCNC(=N)N)NC(=O)[C@H](C)NC(=O)[C@H](C)NC(=O)[C@H](CCC(N)=O)NC(=O)[C@H](CCC(=O)O)NC(=O)[C@H](CC(=O)O)NC(=O)[C@H](CC(C)C)NC(=O)[C@@H](NC(=O)[C@@H](NC(=O)[C@H](C)NC(=O)[C@H](CC(C)C)NC(=O)[C@H](CCC(=O)O)NC(=O)[C@H](CO)NC(=O)[C@@H](NC(=O)[C@H](Cc1ccccc1)NC(=O)[C@@H](NC(=O)CNC(=O)[C@H](CCC(=O)O)NC(=O)C(C)(C)NC(=O)[C@@H](N)Cc1c[nH]cn1)[C@@H](C)O)[C@@H](C)O)[C@@H](C)O)[C@@H](C)CC)[C@@H](C)CC)C(=O)N[C@@H](C)C(=O)N[C@@H](Cc1ccc(O)cc1)C(=O)N[C@@H](CCCCN)C(=O)N[C@H](C(=O)N[C@H](C(=O)N[C@@H](CC(=O)O)C(=O)O)[C@@H](C)O)[C@@H](C)CC
EC50 GLP-1 (nM); cAMP AlphaScreen, HEK293 cells expressing human GLP-1R [1]: 0.012 nM
EC50 GLP-2 (nM); cAMP AlphaScreen, HEK293 cells expressing human GLP-2R [2]: 0.26 nM

B2: Compound 18 (peptide)
peptide: H-H[Aib]EGTFTSELATILDEQAARDFIAWLISHKITD-OH
SMILES: CC[C@H](C)[C@H](NC(=O)[C@H](Cc1ccccc1)NC(=O)[C@H](CC(=O)O)NC(=O)[C@H](CCCNC(=N)N)NC(=O)[C@H](C)NC(=O)[C@H](C)NC(=O)[C@H](CCC(N)=O)NC(=O)[C@H](CCC(=O)O)NC(=O)[C@H](CC(=O)O)NC(=O)[C@H](CC(C)C)NC(=O)[C@@H](NC(=O)[C@@H](NC(=O)[C@H](C)NC(=O)[C@H](CC(C)C)NC(=O)[C@H](CCC(=O)O)NC(=O)[C@H](CO)NC(=O)[C@@H](NC(=O)[C@H](Cc1ccccc1)NC(=O)[C@@H](NC(=O)CNC(=O)[C@H](CCC(=O)O)NC(=O)C(C)(C)NC(=O)[C@@H](N)Cc1c[nH]cn1)[C@@H](C)O)[C@@H](C)O)[C@@H](C)O)[C@@H](C)CC)C(=O)N[C@@H](C)C(=O)N[C@@H](Cc1c[nH]c2ccccc12)C(=O)N[C@@H](CC(C)C)C(=O)N[C@H](C(=O)N[C@@H](CO)C(=O)N[C@@H](Cc1c[nH]cn1)C(=O)N[C@@H](CCCCN)C(=O)N[C@H](C(=O)N[C@H](C(=O)N[C@@H](CC(=O)O)C(=O)O)[C@@H](C)O)[C@@H](C)CC)[C@@H](C)CC
EC50 GLP-1 (nM); cAMP AlphaScreen, HEK293 cells expressing human GLP-1R [1]: 0.006 nM
EC50 GLP-2 (nM); cAMP AlphaScreen, HEK293 cells expressing human GLP-2R [2]: 0.054 nM

B3: Compound 17 (peptide)
peptide: H-H[Aib]EGTFTSELATILDEQAARDFIAWLIRHKITD-OH
SMILES: CC[C@H](C)[C@H](NC(=O)[C@H](Cc1ccccc1)NC(=O)[C@H](CC(=O)O)NC(=O)[C@H](CCCNC(=N)N)NC(=O)[C@H](C)NC(=O)[C@H](C)NC(=O)[C@H](CCC(N)=O)NC(=O)[C@H](CCC(=O)O)NC(=O)[C@H](CC(=O)O)NC(=O)[C@H](CC(C)C)NC(=O)[C@@H](NC(=O)[C@@H](NC(=O)[C@H](C)NC(=O)[C@H](CC(C)C)NC(=O)[C@H](CCC(=O)O)NC(=O)[C@H](CO)NC(=O)[C@@H](NC(=O)[C@H](Cc1ccccc1)NC(=O)[C@@H](NC(=O)CNC(=O)[C@H](CCC(=O)O)NC(=O)C(C)(C)NC(=O)[C@@H](N)Cc1c[nH]cn1)[C@@H](C)O)[C@@H](C)O)[C@@H](C)O)[C@@H](C)CC)C(=O)N[C@@H](C)C(=O)N[C@@H](Cc1c[nH]c2ccccc12)C(=O)N[C@@H](CC(C)C)C(=O)N[C@H](C(=O)N[C@@H](CCCNC(=N)N)C(=O)N[C@@H](Cc1c[nH]cn1)C(=O)N[C@@H](CCCCN)C(=O)N[C@H](C(=O)N[C@H](C(=O)N[C@@H](CC(=O)O)C(=O)O)[C@@H](C)O)[C@@H](C)CC)[C@@H](C)CC
EC50 GLP-1 (nM); cAMP AlphaScreen, HEK293 cells expressing human GLP-1R [1]: 0.006 nM
EC50 GLP-2 (nM); cAMP AlphaScreen, HEK293 cells expressing human GLP-2R [2]: 0.066 nM

B4: Compound 23 (peptide)
peptide: H-H[Aib]EGSFTSELATILDEQAARDFIAWLYEHKITD-OH
SMILES: CC[C@H](C)[C@H](NC(=O)[C@H](Cc1ccccc1)NC(=O)[C@H](CC(=O)O)NC(=O)[C@H](CCCNC(=N)N)NC(=O)[C@H](C)NC(=O)[C@H](C)NC(=O)[C@H](CCC(N)=O)NC(=O)[C@H](CCC(=O)O)NC(=O)[C@H](CC(=O)O)NC(=O)[C@H](CC(C)C)NC(=O)[C@@H](NC(=O)[C@@H](NC(=O)[C@H](C)NC(=O)[C@H](CC(C)C)NC(=O)[C@H](CCC(=O)O)NC(=O)[C@H](CO)NC(=O)[C@@H](NC(=O)[C@H](Cc1ccccc1)NC(=O)[C@H](CO)NC(=O)CNC(=O)[C@H](CCC(=O)O)NC(=O)C(C)(C)NC(=O)[C@@H](N)Cc1c[nH]cn1)[C@@H](C)O)[C@@H](C)O)[C@@H](C)CC)C(=O)N[C@@H](C)C(=O)N[C@@H](Cc1c[nH]c2ccccc12)C(=O)N[C@@H](CC(C)C)C(=O)N[C@@H](Cc1ccc(O)cc1)C(=O)N[C@@H](CCC(=O)O)C(=O)N[C@@H](Cc1c[nH]cn1)C(=O)N[C@@H](CCCCN)C(=O)N[C@H](C(=O)N[C@H](C(=O)N[C@@H](CC(=O)O)C(=O)O)[C@@H](C)O)[C@@H](C)CC
EC50 GLP-1 (nM); cAMP AlphaScreen, HEK293 cells expressing human GLP-1R [1]: 0.12 nM
EC50 GLP-2 (nM); cAMP AlphaScreen, HEK293 cells expressing human GLP-2R [2]: 0.034 nM

B5: Compound 21 (peptide)
peptide: H-H[Aib]EGTFTSELATILDEQAARDFIAWLHQHKITD-OH
SMILES: CC[C@H](C)[C@H](NC(=O)[C@H](Cc1ccccc1)NC(=O)[C@H](CC(=O)O)NC(=O)[C@H](CCCNC(=N)N)NC(=O)[C@H](C)NC(=O)[C@H](C)NC(=O)[C@H](CCC(N)=O)NC(=O)[C@H](CCC(=O)O)NC(=O)[C@H](CC(=O)O)NC(=O)[C@H](CC(C)C)NC(=O)[C@@H](NC(=O)[C@@H](NC(=O)[C@H](C)NC(=O)[C@H](CC(C)C)NC(=O)[C@H](CCC(=O)O)NC(=O)[C@H](CO)NC(=O)[C@@H](NC(=O)[C@H](Cc1ccccc1)NC(=O)[C@@H](NC(=O)CNC(=O)[C@H](CCC(=O)O)NC(=O)C(C)(C)NC(=O)[C@@H](N)Cc1c[nH]cn1)[C@@H](C)O)[C@@H](C)O)[C@@H](C)O)[C@@H](C)CC)C(=O)N[C@@H](C)C(=O)N[C@@H](Cc1c[nH]c2ccccc12)C(=O)N[C@@H](CC(C)C)C(=O)N[C@@H](Cc1c[nH]cn1)C(=O)N[C@@H](CCC(N)=O)C(=O)N[C@@H](Cc1c[nH]cn1)C(=O)N[C@@H](CCCCN)C(=O)N[C@H](C(=O)N[C@H](C(=O)N[C@@H](CC(=O)O)C(=O)O)[C@@H](C)O)[C@@H](C)CC
EC50 GLP-1 (nM); cAMP AlphaScreen, HEK293 cells expressing human GLP-1R [1]: 0.049 nM
EC50 GLP-2 (nM); cAMP AlphaScreen, HEK293 cells expressing human GLP-2R [2]: 0.11 nM

B6: Compound 22 (peptide)
peptide: H-H[Aib]EGSFTSELATILDEQAARDFIAWLHAHKITD-OH
SMILES: CC[C@H](C)[C@H](NC(=O)[C@H](Cc1ccccc1)NC(=O)[C@H](CC(=O)O)NC(=O)[C@H](CCCNC(=N)N)NC(=O)[C@H](C)NC(=O)[C@H](C)NC(=O)[C@H](CCC(N)=O)NC(=O)[C@H](CCC(=O)O)NC(=O)[C@H](CC(=O)O)NC(=O)[C@H](CC(C)C)NC(=O)[C@@H](NC(=O)[C@@H](NC(=O)[C@H](C)NC(=O)[C@H](CC(C)C)NC(=O)[C@H](CCC(=O)O)NC(=O)[C@H](CO)NC(=O)[C@@H](NC(=O)[C@H](Cc1ccccc1)NC(=O)[C@H](CO)NC(=O)CNC(=O)[C@H](CCC(=O)O)NC(=O)C(C)(C)NC(=O)[C@@H](N)Cc1c[nH]cn1)[C@@H](C)O)[C@@H](C)O)[C@@H](C)CC)C(=O)N[C@@H](C)C(=O)N[C@@H](Cc1c[nH]c2ccccc12)C(=O)N[C@@H](CC(C)C)C(=O)N[C@@H](Cc1c[nH]cn1)C(=O)N[C@@H](C)C(=O)N[C@@H](Cc1c[nH]cn1)C(=O)N[C@@H](CCCCN)C(=O)N[C@H](C(=O)N[C@H](C(=O)N[C@@H](CC(=O)O)C(=O)O)[C@@H](C)O)[C@@H](C)CC
EC50 GLP-1 (nM); cAMP AlphaScreen, HEK293 cells expressing human GLP-1R [1]: 0.28 nM
EC50 GLP-2 (nM); cAMP AlphaScreen, HEK293 cells expressing human GLP-2R [2]: 0.042 nM

B7: Compound 19 (peptide)
peptide: H-H[Aib]EGTFTSELATILDEQAARDFIAWLIAQKITD-OH
SMILES: CC[C@H](C)[C@H](NC(=O)[C@H](CC(C)C)NC(=O)[C@H](Cc1c[nH]c2ccccc12)NC(=O)[C@H](C)NC(=O)[C@@H](NC(=O)[C@H](Cc1ccccc1)NC(=O)[C@H](CC(=O)O)NC(=O)[C@H](CCCNC(=N)N)NC(=O)[C@H](C)NC(=O)[C@H](C)NC(=O)[C@H](CCC(N)=O)NC(=O)[C@H](CCC(=O)O)NC(=O)[C@H](CC(=O)O)NC(=O)[C@H](CC(C)C)NC(=O)[C@@H](NC(=O)[C@@H](NC(=O)[C@H](C)NC(=O)[C@H](CC(C)C)NC(=O)[C@H](CCC(=O)O)NC(=O)[C@H](CO)NC(=O)[C@@H](NC(=O)[C@H](Cc1ccccc1)NC(=O)[C@@H](NC(=O)CNC(=O)[C@H](CCC(=O)O)NC(=O)C(C)(C)NC(=O)[C@@H](N)Cc1c[nH]cn1)[C@@H](C)O)[C@@H](C)O)[C@@H](C)O)[C@@H](C)CC)[C@@H](C)CC)C(=O)N[C@@H](C)C(=O)N[C@@H](CCC(N)=O)C(=O)N[C@@H](CCCCN)C(=O)N[C@H](C(=O)N[C@H](C(=O)N[C@@H](CC(=O)O)C(=O)O)[C@@H](C)O)[C@@H](C)CC
EC50 GLP-1 (nM); cAMP AlphaScreen, HEK293 cells expressing human GLP-1R [1]: 0.005 nM
EC50 GLP-2 (nM); cAMP AlphaScreen, HEK293 cells expressing human GLP-2R [2]: 0.15 nM
